Measurements reported in ChEMBL document CHEMBL1153925, “Synthesis, characterization and biological activity of ring-substituted 6-benzylamino-9-tetrahydropyran-2-yl and 9-tetrahydrofuran-2-ylpurine derivatives” (Bioorg Med Chem, 2009).

Legend:
Details in all cases: Zea mays
[1] = substrate: Oc1ccc(CNc2ncnc3c2ncn3C2CCCCO2)cc1
[2] = biological target: 6-(4-hydroxybenzylamino)purine
[3] = substrate: CC(C)=CCNc1ncnc2[nH]cnc12
[4] = substrate: Oc1cccc(CNc2ncnc3c2ncn3C2CCCCO2)c1
[5] = substrate: c1ccc(CNc2ncnc3[nH]cnc23)cc1
[6] = substrate: Oc1cccc(CNc2ncnc3nc[nH]c23)c1
[7] = substrate: c1ccc(CNc2ncnc3c2ncn3C2CCCCO2)cc1
[8] = substrate: COc1ccc(CN)cc1
[9] = substrate: Oc1ccc(CNc2ncnc3c2ncn3C2CCCCO2)cc1; remark: listed apart in the source
[10] = substrate: COc1cccc(CNc2ncnc3c2ncn3C2CCCCO2)c1
[11] = substrate: O[C@@H]1[C@H](O)[C@H](O)CO[C@H]1n1cnc2c(NCc3ccccc3)ncnc21
[12] = substrate: CC(C)=CCNc1ncnc2[nH]cnc12; remark: listed apart in the source
[13] = substrate: COc1ccc(CNc2ncnc3c2ncn3C2CCCCO2)cc1
[14] = substrate: Oc1cccc(CNc2ncnc3c2ncn3C2CCCCO2)c1; remark: listed apart in the source
[15] = substrate: COc1cccc(CN)c1
[16] = substrate: c1ccc(CNc2ncnc3[nH]cnc23)cc1; remark: listed apart in the source
[17] = substrate: Oc1cccc(CNc2ncnc3nc[nH]c23)c1; remark: listed apart in the source
[18] = substrate: NCc1ccc(O)cc1
[19] = substrate: c1ccc(CNc2ncnc3c2ncn3C2CCCCO2)cc1; remark: listed apart in the source
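Wherever Km is given: zea mays CKX1 produced in Pichia pastoris, enzyme activity followed as aldehyde formation detected with the 4-aminophenol method.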

B1: Cytokinin dehydrogenase 1 (Zea mays), Q9T0N8 (protein)
chain: MAVVYYLLLAGLIACSHALAAGTPALGDDRGRPWPASLAALALDGKLRTDSNATAAASTDFGNITSALPAAVLYPSSTGDLVALLSAANSTPGWPYTIAFRGRGHSLMGQAFAPGGVVVNMASLGDAAAPPRINVSADGRYVDAGGEQVWIDVLRASLARGVAPRSWNDYLYLTVGGTLSNAGISGQAFRHGPQISNVLEMDVITGHGEMVTCSKQLNADLFDAVLGGLGQFGVITRARIAVEPAPARARWVRFVYTDFAAFSADQERLTAPRPGGGGASFGPMSYVEGSVFVNQSLATDLANTGFFTDADVARIVALAGERNATTVYSIEATLNYDNATAAAAAVDQELASVLGTLSYVEGFAFQRDVAYAAFLDRVHGEEVALNKLGLWRVPHPWLNMFVPRSRIADFDRGVFKGILQGTDIVGPLIVYPLNKSMWDDGMSAATPSEDVFYAVSLLFSSVAPNDLARLQEQNRRILRFCDLAGIQYKTYLARHTDRSDWVRHFGAAKWNRFVEMKNKYDPKRLLSPGQDIFN
Q: Which results are given for B1?
A: kcat/Km [1]: 5800 M⁻¹ s⁻¹; kcat/Km [2]: 0.158; kcat/Km [3]: 0.116; kcat/Km [4]: 0.0003; kcat/Km [5]: 0.0076; kcat/Km [6]: 0.01; kcat/Km [7]: 0.0007; kcat [8]: 0.476 s⁻¹; Km [9]: 33.8 µM; kcat [9]: 0.195 s⁻¹; kcat [10]: 0.006 s⁻¹; kcat [11]: 0.218 s⁻¹; Km [12]: 1.8 µM; kcat [12]: 0.208 s⁻¹; kcat [13]: 0.256 s⁻¹; Km [14]: 125 µM; kcat [14]: 0.032 s⁻¹; kcat [15]: 0.145 s⁻¹; Km [16]: 29.6 µM; kcat [16]: 0.225 s⁻¹; Km [17]: 24.4 µM; kcat [17]: 0.244 s⁻¹; Km [18]: 5.5 µM; kcat [18]: 0.871 s⁻¹; Km [19]: 98.9 µM; kcat [19]: 0.069 s⁻¹
